Results reported in the supplement of paper PMC9112550, “Optimization of the antimicrobial peptide Bac7 by deep mutational scanning” (BMC Biology, 2022).

The sequences below were run on Escherichia coli TOP10 (assay: shrunken log2 fold change of peptide-encoding DNA abundance (4.5 h post-induction vs induction); higher = less antimicrobial activity (less host growth inhibition)). Details: time post-induction: 4.5 h; library: site-saturation at positions 5, 18, 19, 20.
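Also: peptides expressed intracellularly from a pBAD plasmid library in pooled LB shake-flask culture, induced with 0.3% L-arabinose, DNA abundance read by NGS, three biological replicates, DESeq2 with apeglm shrinkage.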

| Sequence | shrunken log2 fold change |
| --- | --- |
| RRIRYRPPRLPRPRPRPITKPRP | -0.184 |
| RRIRSRPPRLPRPRPRPQWEPRP | 0.022 |
| RRIRARPPRLPRPRPRPWLQPRP | -0.0599 |
| RRIRRRPPRLPRPRPRPPWDPRP | 0.577 |
| RRIRFRPPRLPRPRPRPQYHPRP | -1.15 |
| RRIRNRPPRLPRPRPRPRDFPRP | 0.0201 |
| RRIRSRPPRLPRPRPRPSEIPRP | 0.0398 |
| RRIRSRPPRLPRPRPRPARSPRP | 0.158 |
| RRIRHRPPRLPRPRPRPYSTPRP | 0.122 |
| RRIRQRPPRLPRPRPRPRMGPRP | -0.0719 |
| RRIRTRPPRLPRPRPRPWSRPRP | -0.0291 |
| RRIRPRPPRLPRPRPRPSYNPRP | -0.671 |
| RRIRMRPPRLPRPRPRPQGKPRP | -0.0118 |
| RRIRGRPPRLPRPRPRPDFSPRP | 0.313 |
| RRIRKRPPRLPRPRPRPNYCPRP | -0.0369 |
| RRIRGRPPRLPRPRPRPCPNPRP | 0.0353 |
| RRIRSRPPRLPRPRPRPQVPPRP | 0.299 |
| RRIRMRPPRLPRPRPRPYNVPRP | -0.3 |
| RRIRDRPPRLPRPRPRPRYDPRP | -0.284 |
| RRIRLRPPRLPRPRPRPEWNPRP | -0.083 |
| RRIRYRPPRLPRPRPRPYKDPRP | -0.748 |
| RRIRGRPPRLPRPRPRPCYPPRP | 0.0523 |
| RRIRIRPPRLPRPRPRPYPGPRP | -0.0674 |
| RRIRDRPPRLPRPRPRPLFYPRP | -0.258 |
| RRIRLRPPRLPRPRPRPVCNPRP | -0.0299 |

| Sequence | shrunken log2 fold change |
| --- | --- |
| RRIRNRPPRLPRPRPRPRYTPRP | -0.56 |
| RRIRLRPPRLPRPRPRPLSCPRP | -0.0916 |
| RRIRFRPPRLPRPRPRPWSNPRP | -0.0867 |
| RRIRLRPPRLPRPRPRPMPYPRP | -0.0714 |
| RRIRDRPPRLPRPRPRPNHTPRP | -0.0643 |
| RRIRCRPPRLPRPRPRPMATPRP | 0.0993 |
| RRIRKRPPRLPRPRPRPNMKPRP | 0.125 |
| RRIRRRPPRLPRPRPRPMRIPRP | 0.0269 |
| RRIRARPPRLPRPRPRPYLNPRP | -0.914 |
| RRIRIRPPRLPRPRPRPPGCPRP | 0.354 |
| RRIRWRPPRLPRPRPRPNTVPRP | 0.178 |
| RRIRARPPRLPRPRPRPQRAPRP | 1.26 |
| RRIRCRPPRLPRPRPRPLFYPRP | -0.764 |
| RRIRPRPPRLPRPRPRPIMRPRP | -0.0819 |
| RRIRMRPPRLPRPRPRPQNKPRP | -0.176 |
| RRIRARPPRLPRPRPRPREMPRP | 0.563 |
| RRIRRRPPRLPRPRPRPPGRPRP | 1.52 |
| RRIRTRPPRLPRPRPRPWNHPRP | 0.0317 |
| RRIRARPPRLPRPRPRPSDSPRP | -0.197 |
| RRIRLRPPRLPRPRPRPDEFPRP | 0.0159 |
| RRIRSRPPRLPRPRPRPSEWPRP | 0.0157 |
| RRIRSRPPRLPRPRPRPYDGPRP | -0.203 |
| RRIRARPPRLPRPRPRPIALPRP | 0.0719 |
| RRIRFRPPRLPRPRPRPCTVPRP | -0.318 |
| RRIRFRPPRLPRPRPRPQEDPRP | 0.0325 |

| Sequence | shrunken log2 fold change |
| --- | --- |
| RRIRGRPPRLPRPRPRPNWCPRP | -0.0123 |
| RRIRWRPPRLPRPRPRPIQIPRP | -0.378 |
| RRIRRRPPRLPRPRPRPWCIPRP | -0.366 |
| RRIRFRPPRLPRPRPRPHSHPRP | -0.939 |
| RRIRTRPPRLPRPRPRPNSAPRP | -0.181 |
| RRIRPRPPRLPRPRPRPWCGPRP | 0.0629 |
| RRIRCRPPRLPRPRPRPPPHPRP | 1.3 |
| RRIRHRPPRLPRPRPRPTVQPRP | 0.118 |
| RRIRQRPPRLPRPRPRPFCMPRP | -0.0373 |
| RRIRQRPPRLPRPRPRPLPEPRP | 0.39 |
| RRIRYRPPRLPRPRPRPLGGPRP | -0.0546 |
| RRIRMRPPRLPRPRPRPDARPRP | -0.0547 |
| RRIRHRPPRLPRPRPRPIMAPRP | -0.383 |
| RRIRDRPPRLPRPRPRPFRVPRP | -0.101 |
| RRIRWRPPRLPRPRPRPKEKPRP | 0.0316 |
| RRIRWRPPRLPRPRPRPAAEPRP | 1.21 |
| RRIRARPPRLPRPRPRPMWPPRP | 0.527 |
| RRIRTRPPRLPRPRPRPVDPPRP | -0.175 |
| RRIRCRPPRLPRPRPRPTLYPRP | -0.396 |
| RRIRCRPPRLPRPRPRPSAMPRP | 0.272 |
| RRIRLRPPRLPRPRPRPNKCPRP | -0.323 |
| RRIRKRPPRLPRPRPRPGPCPRP | 0.393 |
| RRIRARPPRLPRPRPRPQMRPRP | 0.62 |
| RRIRGRPPRLPRPRPRPCHWPRP | -0.175 |
| RRIRDRPPRLPRPRPRPYCWPRP | 0.085 |

| Sequence | shrunken log2 fold change |
| --- | --- |
| RRIRIRPPRLPRPRPRPQVVPRP | -0.0262 |
| RRIRCRPPRLPRPRPRPCYEPRP | -0.663 |
| RRIRYRPPRLPRPRPRPVLDPRP | -0.265 |
| RRIRPRPPRLPRPRPRPGHRPRP | 0.0675 |
| RRIRHRPPRLPRPRPRPMIKPRP | -0.0726 |
| RRIRCRPPRLPRPRPRPKCTPRP | -0.0914 |
| RRIRGRPPRLPRPRPRPGSHPRP | 0.12 |
| RRIRSRPPRLPRPRPRPSDLPRP | -0.254 |
| RRIRQRPPRLPRPRPRPAQTPRP | 0.13 |
| RRIRWRPPRLPRPRPRPCFLPRP | -0.462 |
| RRIRFRPPRLPRPRPRPLNWPRP | -0.109 |
| RRIRERPPRLPRPRPRPHECPRP | -0.0253 |
| RRIRCRPPRLPRPRPRPQKCPRP | -0.0526 |
| RRIRHRPPRLPRPRPRPDKYPRP | -0.146 |
| RRIRYRPPRLPRPRPRPYKQPRP | -0.025 |
| RRIRFRPPRLPRPRPRPDQHPRP | -0.34 |
| RRIRDRPPRLPRPRPRPYKYPRP | -0.661 |
| RRIRERPPRLPRPRPRPNGAPRP | 0.0556 |
| RRIRHRPPRLPRPRPRPPGEPRP | 0.418 |
| RRIRMRPPRLPRPRPRPGDRPRP | 0.786 |
| RRIRIRPPRLPRPRPRPMACPRP | -0.321 |
| RRIRCRPPRLPRPRPRPCYQPRP | -0.182 |
| RRIRVRPPRLPRPRPRPDWHPRP | -0.0256 |
| RRIRYRPPRLPRPRPRPCYAPRP | -0.00203 |
| RRIRIRPPRLPRPRPRPLLQPRP | -0.163 |

| Sequence | shrunken log2 fold change |
| --- | --- |
| RRIRSRPPRLPRPRPRPGSRPRP | 0.297 |
| RRIRPRPPRLPRPRPRPQHSPRP | -0.161 |
| RRIRCRPPRLPRPRPRPLHYPRP | -0.352 |
| RRIRKRPPRLPRPRPRPAMQPRP | 0.115 |
| RRIRDRPPRLPRPRPRPHKEPRP | -0.00521 |
| RRIRVRPPRLPRPRPRPRVWPRP | 0.736 |
| RRIRERPPRLPRPRPRPAVIPRP | -0.12 |
| RRIRERPPRLPRPRPRPPPLPRP | 0.222 |
| RRIRGRPPRLPRPRPRPTWMPRP | 0.599 |
| RRIRARPPRLPRPRPRPLAMPRP | 0.474 |
| RRIRKRPPRLPRPRPRPQEWPRP | -0.0193 |
| RRIRERPPRLPRPRPRPCEKPRP | 0.0102 |
| RRIRNRPPRLPRPRPRPVMNPRP | -0.075 |
| RRIRGRPPRLPRPRPRPIKDPRP | 0.309 |
| RRIRPRPPRLPRPRPRPVEYPRP | -0.156 |
| RRIRVRPPRLPRPRPRPWQWPRP | -0.0592 |
| RRIRVRPPRLPRPRPRPVTAPRP | -0.0594 |
| RRIRCRPPRLPRPRPRPTECPRP | -0.168 |
| RRIRPRPPRLPRPRPRPYSFPRP | -0.796 |
| RRIRSRPPRLPRPRPRPLNIPRP | -0.422 |
| RRIRKRPPRLPRPRPRPTTPPRP | 0.427 |
| RRIRQRPPRLPRPRPRPIPIPRP | -0.104 |
| RRIRPRPPRLPRPRPRPVERPRP | 0.289 |
| RRIRYRPPRLPRPRPRPDVLPRP | 0.0494 |
| RRIRPRPPRLPRPRPRPQVSPRP | -0.00288 |

| Sequence | shrunken log2 fold change |
| --- | --- |
| RRIRVRPPRLPRPRPRPPRNPRP | 0.343 |
| RRIRWRPPRLPRPRPRPKEWPRP | 0.00353 |
| RRIRNRPPRLPRPRPRPKRTPRP | -0.0256 |
| RRIRVRPPRLPRPRPRPRGTPRP | -0.164 |
| RRIRCRPPRLPRPRPRPRHGPRP | 0.116 |
| RRIRIRPPRLPRPRPRPMYMPRP | 0.00884 |
| RRIRNRPPRLPRPRPRPFYWPRP | -0.0682 |
| RRIRCRPPRLPRPRPRPYRAPRP | -0.383 |
| RRIRVRPPRLPRPRPRPVGMPRP | -0.0289 |
| RRIRIRPPRLPRPRPRPNFCPRP | -0.162 |
| RRIRARPPRLPRPRPRPAVAPRP | 0.728 |
| RRIRNRPPRLPRPRPRPDKSPRP | -0.193 |
| RRIRERPPRLPRPRPRPHTIPRP | -0.217 |
| RRIRFRPPRLPRPRPRPEDWPRP | 0.181 |
| RRIRHRPPRLPRPRPRPRQFPRP | -0.0158 |
| RRIRIRPPRLPRPRPRPCLMPRP | -0.601 |
| RRIRHRPPRLPRPRPRPFGKPRP | 0.0294 |
| RRIRRRPPRLPRPRPRPVMHPRP | 0.0548 |
| RRIRGRPPRLPRPRPRPCAVPRP | 0.66 |
| RRIRCRPPRLPRPRPRPVLSPRP | -0.192 |
| RRIRFRPPRLPRPRPRPMIRPRP | -0.163 |
| RRIRMRPPRLPRPRPRPTCEPRP | 0.745 |
| RRIRERPPRLPRPRPRPEIMPRP | -0.00047 |
| RRIRPRPPRLPRPRPRPTWCPRP | 0.08 |
| RRIRDRPPRLPRPRPRPAHNPRP | -0.206 |
